Results on 2 molecules are retold here after PMC6232587, “Human RNA cap1 methyltransferase CMTr1 cooperates with RNA helicase DHX15 to modify RNAs with highly structured 5′ termini” (Philosophical Transactions of the Royal Society B: …, 2018).

Some results are limits rather than exact numbers.

The labels stand for the following.
B1: CMTr1 full-length, purified from insect cells (enzyme, human, UniProt Q8N1G2 1-835, looked up)
chain: MKRRTDPECTAPIKKQKKRVAELALSLSSTSDDEPPSSVSHGAKASTTSLSGSDSETEGKQHSSDSFDDAFKADSLVEGTSSRYSMYNSVSQKLMAKMGFREGEGLGKYSQGRKDIVEASSQKGRRGLGLTLRGFDQELNVDWRDEPEPSACEQVSWFPECTTEIPDTQEMSDWMVVGKRKMIIEDETEFCGEELLHSVLQCKSVFDVLDGEEMRRARTRANPYEMIRGVFFLNRAAMKMANMDFVFDRMFTNPRDSYGKPLVKDREAELLYFADVCAGPGGFSEYVLWRKKWHAKGFGMTLKGPNDFKLEDFYSASSELFEPYYGEGGIDGDGDITRPENISAFRNFVLDNTDRKGVHFLMADGGFSVEGQENLQEILSKQLLLCQFLMALSIVRTGGHFICKTFDLFTPFSVGLVYLLYCCFERVCLFKPITSRPANSERYVVCKGLKVGIDDVRDYLFAVNIKLNQLRNTDSDVNLVVPLEVIKGDHEFTDYMIRSNESHCSLQIKALAKIHAFVQDTTLSEPRQAEIRKECLRLWGIPDQARVAPSSSDPKSKFFELIQGTEIDIFSYKPTLLTSKTLEKIRPVFDYRCMVSGSEQKFLIGLGKSQIYTWDGRQSDRWIKLDLKTELPRDTLLSVEIVHELKGEGKAQRKISAIHILDVLVLNGTDVREQHFNQRIQLAEKFVKAVSKPSRPDMNPIRVKEVYRLEEMEKIFVRLEMKIIKGSSGTPKLSYTGRDDRHFVPMGLYIVRTVNEPWTMGFSKSFKKKFFYNKKTKDSTFDLPADSIAPFHICYYGRLFWEWGDGIRVHDSQKPQDQDKLSKEDVLSFIQMHRA
B2: Recombinant DHX15 with His-tag (enzyme, human, UniProt O43143 1-795, looked up)
chain: MSKRHRLDLGEDYPSGKKRAGTDGKDRDRDRDREDRSKDRDRERDRGDREREREKEKEKELRASTNAMLISAGLPPLKASHSAHSTHSAHSTHSTHSAHSTHAGHAGHTSLPQCINPFTNLPHTPRYYDILKKRLQLPVWEYKDRFTDILVRHQSFVLVGETGSGKTTQIPQWCVEYMRSLPGPKRGVACTQPRRVAAMSVAQRVADEMDVMLGQEVGYSIRFEDCSSAKTILKYMTDGMLLREAMNDPLLERYGVIILDEAHERTLATDILMGVLKEVVRQRSDLKVIVMSATLDAGKFQIYFDNCPLLTIPGRTHPVEIFYTPEPERDYLEAAIRTVIQIHMCEEEEGDLLLFLTGQEEIDEACKRIKREVDDLGPEVGDIKIIPLYSTLPPQQQQRIFEPPPPKKQNGAIGRKVVVSTNIAETSLTIDGVVFVIDPGFAKQKVYNPRIRVESLLVTAISKASAQQRAGRAGRTRPGKCFRLYTEKAYKTEMQDNTYPEILRSNLGSVVLQLKKLGIDDLVHFDFMDPPAPETLMRALELLNYLAALNDDGDLTELGSMMAEFPLDPQLAKMVIASCDYNCSNEVLSITAMLSVPQCFVRPTEAKKAADEAKMRFAHIDGDHLTLLNVYHAFKQNHESVQWCYDNFINYRSLMSADNVRQQLSRIMDRFNLPRRSTDFTSRDYYINIRKALVTGYFMQVAHLERTGHYLTVKDNQVVQLHPSTVLDHKPEWVLYNEFVLTTKNYIRTCTDIKPEWLVKIAPQYYDMSNFPQCEAKRQLDRIIAKLQSKEYSQY
notes: ATP-dependent RNA helicase DHX15, human, from the full-length cDNA, cloned into pET28; The cloning paragraph says C-terminal His-tag; also called His-DHX15; DHX15 helicase; not shown: His-tag, C-terminal, kept

The target in test [1] is B2. The experiment in a line: cell-based or functional assay.
Test [2] has as its target B1. The experiment in a line: pull-down; purified His-DHX15 and CMTr1 mixed in BDHX buffer (20 mM Tris-HCl pH 8, 70 mM KCl, 3 mM MgCl2, 5 mM DTT, 100 µM ATP), on ice for 10 min; complexes captured on nickel-charged agarose beads. The note with it: both partners purified.

Consider B1, for which, in test [1], the “CMTr1 methyltransferase activity towards RNA92 and RNA68 substrates with equimolar DHX15, in comparison with CMTr1 alone” value was > 3 fold.
As for B2, in test [2], the binding result is recorded as “binds”.
